Test results taken from the domain aggregation screens of Martell et al. (2025).

Experiment: soluble fraction after stress (log2 fold change); higher = more stays soluble; pooled small domains, quantitative proteomics
Settings: stress: 75 degC
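Note: 20 min heating vs room temperature control held 20 min.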

First: HMEEVRFPLKKEILLWALKEAQVDEDEVFRKFTNLEKWINGEKHPTFKQIESLANYLKIPFGYMFLEKPPI
Second: HMEEVVIPDLAGLTEEEATKVLMAKELKLKVSGSQHSDIEKGLIISQDPPAGEKGAKNSQVAVVTSSG
The “soluble fraction (log2)” value of the first is lower: -1.02 for the first, 0.0827 for the second.

“HMEFDFGAILSGNGGSELYSGYSAEQKAALVEAAKADGMDVEFGADGSTTFKDKDGSEVVQKADGTWTV” and “HMEFDVELTSFEEAKKLKVIKEVKDVTGLSLGEAKDLVMGAPKAIKTGVSKEEAEAIKTQIEAAGAVVTI” are within 0.2 log units of each other in “soluble fraction (log2)” value: 0.235 for the first, 0.101 for the second.

First: HMEFDYIVKVPDVRNKKIEDAGKILIDLGLKYTTESDYITQDLKVIDQFPLPGTEVSKGSIIDIYLEEDFK
Second: HMEFEKYKYHYIFDDVLGLRIVWDRGKEHFSYFVNEELAEKSRKSDKDALEVMFYLEHKRWPEEGELENY
The “soluble fraction (log2)” value of the first is higher: -0.473 for the first, -1.67 for the second.

First: HMEFEYTVVVPETRGKTIGEAGRILLDLELKYTSESMNIREDSKVIDQFPSPGTEVSKGSIIDLYLDE
Second: HMEFQISLAAARVNANMTQEDTARAMKVSKTTIVNWEKGKVIPGIPEVEMMSRLYGIPQDYIFLP
The “soluble fraction (log2)” value of the first is higher: -0.137 for the first, -3.08 for the second.

Compared with “HMEFSYLEEIGHEKGDLIKGLQLIQQKEGYVSDDAVRAVAENFGMSPAEVEGVLTFYAQFKR”, “HMEGFKSVYFLTTPSGAEISDRSVGDIISKTPSLVSAQEGTEFEFNLKGYQPSFYMINKRSPDRVFVELIP” is lower in “soluble fraction (log2)” value: -0.162 for the first, -0.545 for the second.

First: HMEGLEKDDGGYYFEKDNGERARNEWVYVEYEGKGYWYYMTDYGYPLRSAITPDGYKVNSNGHWIDEGN
Second: HMEGLESVVPDLRGKSLKSAAIAAGLSGFALSPEGSGIVYKQSPAPGGRYLKGTLIAVWLRT
The “soluble fraction (log2)” value of the first is higher: -0.644 for the first, -1.95 for the second.

Compared with “HMEGMQATVTQITDEGITVRYVMNGQMVTRTLTSDEVAFVNRGQAVSDLAGAYRVGQTVWIY”, “HMEGNAFASTGDPEADILDITAVHPMRRDAVEELLARSGAEWSLVEGMLRDGKITMAPWEGEEFFIRS” is higher in “soluble fraction (log2)” value: -0.446 for the first, 0.105 for the second.

Going from “HMEGNWGLWAKVPNRFAALTTDKDSALRRFKSKEDGEAWMASHGLKPERFDVLEIPADYKPA” to “HMEGRHFRILYILLNNERVTAPELAEEFGVSVRTIYRDIDTMSAAGIPIYMQGGRKGGIYLLEGY”, the “soluble fraction (log2)” value falls from 0.435 to -1.11.

“HMEGSRASMDGQVPGKTSYLEWLARQPAQRQDQVLGAERGRLFRAGEIDLADMFTDKGEWISLERLKQLS” and “HMEGVSNLIVSVTRVKVTVDLSQAKVYLSIFPSEQAAFYLNALQQNRFQLKHDLSQLLKNQLRRIPTLQF” are within 0.2 log units of each other in “soluble fraction (log2)” value: 0.309 for the first, 0.296 for the second.

Compared with “HMEHDYGLSGREREVLELMVQGLVKKEIADRLALSYHTVDNHLRSIYAKLQVHTRGGAVAKALSEHLVPP”, “HMEHGQWLSEAQGASLAADWLARRRGVLPLNARRHLSGLSDQIARQIEGGLSREAGLYTAHEMMESLDP” is lower in “soluble fraction (log2)” value: -0.0631 for the first, -0.427 for the second.

First: HMEHNDPEVERTMFQGLEALKLQLFEKAFGHFSLLIKLAPDYAEAWNKRATVLYLMGRFKESESDVMRTLE
Second: HMEHQLLHMEKTIFEEIADDYPQLNHTKIRNVLAAFLFTNDDVFKRIADLSGGERGRVSLAKLMLSDA
The “soluble fraction (log2)” value of the first is higher: 0.16 for the first, -0.159 for the second.

First: HMEHTPYLTEREADVVRLLVSGLDTAQIAQRLGIKTATVTAHKKHIFLKIGVRNTTQLVAWALIR
Second: HMEIELHNLALNIKEFRKKNKLSQAELAEKLGVARTTIGYYERAEVEPNIYTLVQLSKLMNRSIDSLLGL
The “soluble fraction (log2)” value of the first is higher: -2.3 for the first, -2.64 for the second.

First: HMEIFYGDDRVYTVSLHGQNNFPFRKKTSDFDYGFEDGTGDEEYLRVLDVTLSRLENEQFDLLFFQAGV
Second: HMEIFYSARAWAKLNDLVATRTYLQHLGAIAGRIGRSEGLSPDRIPDGRDGAVNGWPLWVWDRAYAEVS
The “soluble fraction (log2)” value of the first is higher: -0.068 for the first, -2.82 for the second.

First: HMEIGLIRVDSRLIHGQVITKWLNYSKANVIVVVDDELSKDSFMSEIYKASAPNGIIVEILSIDDFMKNT
Second: HMEIHIGSLIKEKMEERGLSVSDFAHALHYERTNIYKIFKRSSIDVDLLLRISEVLAYDFLREVYL
The “soluble fraction (log2)” value of the first is higher: -0.0469 for the first, -2.4 for the second.

Going from “HMEINKLIELIGGYKALSEVLNVSKSAISNYKKRGSLPSYAIPIIVKELKSKGISIDLSEFT” to “HMEISAIIGNNLQQLRKEQGLSLDQLALKTGVSKAVLSQLENGKANPTINTIWKIATALHVTYSALLEPP”, the “soluble fraction (log2)” value falls from -0.837 to -1.15.

Compared with “HMEISEILNPPLVTAMAERYPEVDVSYYRDKYILYYESREHKITDHRRNFEKWLLVESQKEEN”, “HMEISTENESFSNGLLEHPHYTRPPVWEDLKIPAVLMSGHHGKVAEWRKQQSEALTQERRPDLWEAFG” is higher in “soluble fraction (log2)” value: -0.861 for the first, -0.14 for the second.

First: HMEITSSNELKKMISNLINSENKNNPISDSNIVEKLKENDFLVARRTVAKYRKLLGIKNVNQRKE
Second: HMEIYELTDQEQRVLEFIGEGMTNREIAKNMFLAEKTVKNYVSSLLRKLGLERRTQAAAMAVRLSV
The “soluble fraction (log2)” value of the first is lower: -0.359 for the first, -0.119 for the second.

Compared with “HMEKAYVWTDTRTFDVQNYIGKKKSEVKNDQYGFEFLGEGDYVIDQLPRVGEQIEEGQKVKIMLGNQQEI”, “HMEKDKGTILKEARIKKGLTQEQLANNINYTRQYISKWENNISLPKDIQTLKKISNLLSIPLKELLPEDYL” is lower in “soluble fraction (log2)” value: 0.178 for the first, -0.442 for the second.

Going from “HMEKEFLFNGGKVVMNYEADRIQIMHDTKPGQDVITLMKKNGFKWSPFNKAWQRQITANAIYTTKHLINQ” to “HMEKGIVSNKTDKGYGFIRSSTGESIFVHINNVGKEAYEQLAKGSRVLFDYEVTDRGKRATKVMLEPSES”, the “soluble fraction (log2)” value rises from -1.71 to -0.196.

First: HMEKGLQYRRTDRAIMNAFIKLVNQGSFEKLTVQEILDEALVSRNTFYAHYRDIYDLMDALSN
Second: HMEKIDEDIMDVLKKKAEVSGISLGVLKSIYEKAVKQYKLGHEIGQVKEQYAMQKVNTHLLENK
The “soluble fraction (log2)” value of the first is lower: -1.52 for the first, 0.461 for the second.

Compared with “HMEKIDYLSIGHRLRAYRIASSLKAEDVAESLGISRAAVYRLEKGEIVKIETLDNLARLLNTSLSSLLG”, “HMEKIKNLTVTEFNLIANKNPSGSYDRITREALLHIIHKLESSYEAHTDLERKLFYKFRKAKFNAL” is higher in “soluble fraction (log2)” value: -3.37 for the first, -2.87 for the second.

Going from “HMEKIYLISDAAKQVNVEAHVLRYWEEELDIPAKRNELGHRYYTQEDIETFRKVKELKAQGIQLKGIKNIL” to “HMEKLLTTRQSQIFELAKRKGYWNIPREISITQLAQLTGSSKSTISVMLHAIESKIVDTFYDEI”, the “soluble fraction (log2)” value falls from -0.225 to -3.05.

Going from “HMEKLNERLLYLRKNANLTQQQLADKLHISNKTISQWETGRTLPDIVMLVRLAEIYDMKLDELLNQ” to “HMEKMLENIDLKAAVEALPEREKKVILLRYYRGMTQDAAAKVMKVSQVQISRIEKRAIEILREKL”, the “soluble fraction (log2)” value falls from -1.1 to -2.54.

Going from “HMEKNKERIAFLKKRLEMYYEAEEKILQGQSYTIGSRTLTRTSLANVQSKIKELESEISALETRGN” to “HMEKRIIMLEELKKQVYEANMELPRRGLITYTWGNVSGIDRESGNFVIKPSGVDYDKLKPEDMVVMDL”, the “soluble fraction (log2)” value rises from -1.5 to 0.249.

“HMEKRRQEIVELVKRESEISFAELKQHFPEVSEVTLRKDLKYLDSTLQIIRIHGGAKSLPAAI” and “HMEKTTTLFDETTNPGIIYIGKAMPTGSAISEAAAVWAIKTIDTTTDTEIKWADGVTTYTKVWNNRASYSY” are within 0.2 log units of each other in “soluble fraction (log2)” value: -0.965 for the first, -0.872 for the second.

First: HMEKVDAISQSILDVLKKNNGYLAVTDKSDPDEIYGLFQISKKTFKKAIGSLYRDRLISIEEEGIRLR
Second: HMEKVTAPMPGVINSIVKNVGDTVKRGDVVLILEAMKMENEIVAPKEGKIASINVAKGASVNAGDVLFSI
The “soluble fraction (log2)” value of the first is lower: -0.496 for the first, 0.347 for the second.

Compared with “HMEKVTPEMIAEYNALAKKYNSNPEVVFKKKEIQRLKYIYSLMSEKQKETAEVFPNIPPPPPT”, “HMEKYNIIVDNEDNFRLDKIIALNMKDLSRTMIQEMINRGLVSVNGKITKASYKTKLNDQIEIMIED” is lower in “soluble fraction (log2)” value: 0.162 for the first, -0.599 for the second.

First: HMELAALKILNSPIGKIAIGTSENGLVKLDILTSGQTRAEFSDLPKAHKLALDAADQLAAYF
Second: HMELADNFAKLILTARESKGWTQAQLGQRMAETINVIKSAESGKPPADSVIRKFEMILGIELM
The “soluble fraction (log2)” value of the first is higher: 0.147 for the first, -2.06 for the second.

Compared with “HMELDFLRLQIITGIHSGRLSNNEILMMYDTYSQKGGNSYVSRIVNDYVDENNIKEEGKRNARK”, “HMELDREALSDGLRRLSQLLAEDDIESRTLFRELAPGLKEQLGDDAVEKLAGHISRYEFEQAGALLATSG” is higher in “soluble fraction (log2)” value: -1.5 for the first, -0.0504 for the second.

Compared with “HMELIELTVTEEFEMARLDQFLAGHLTQSRTYIQKLIKAGQITINGNLITRVKVPVHYGDFILINIPDPE”, “HMELKFIGEAVNNPKRPLIAILGGAKVSDKIGVIENLLTKADKILIGGAMMFTFLKAEGKNIGTSLVED” is higher in “soluble fraction (log2)” value: -3.68 for the first, 0.0754 for the second.

Compared with “HMELLEVSVIIREADSTGWSAARQGMEQAAADLGAELRFLTLSQSNSAEEQRSLLAREVEGGADAVVLV”, “HMELNEMEAWSLVSKALRNGTYGAVEEFSRLPPTVQEAVGNPDNLRNWATSDYKAIETVIQSNFIKTY” is higher in “soluble fraction (log2)” value: -0.57 for the first, -0.0842 for the second.

First: HMELNILELKSKERKISLEDHLYIKSFNFDNETNEYFYRLAFNSSKDLKNFKATINNDKTISIINFEI
Second: HMELPVNSIRVPDVVGLSLREAMQAMTDAGVPWQSVQAKGVGFVSRQSPEAGTVTQLRRVRLELKLF
The “soluble fraction (log2)” value of the first is lower: -3.67 for the first, -2.8 for the second.

Compared with “HMELSPVDLGERLKIARETANFTQDAAAKAVGIARTTLVSIEKGQRTARLDEIQALSRFYGVSANALLR”, “HMELTDRQKQIIEIVKKQQPISGEKIASILGFARATLRPDFSLLTMSGILQAKPKVGYLINEE” is higher in “soluble fraction (log2)” value: -1.16 for the first, -0.63 for the second.

Going from “HMELVEVGDLTGLTVEQAENVLKNSNISISIDKYDESDKYEKDQIISQNPQNKKVKKGTAIHVVLSNGP” to “HMEMKMGHIISKLRYESGYSQVELAEKIGITKGAVGMYETDKRKPDYDTLIKLADLFNVSTDYLLS”, the “soluble fraction (log2)” value falls from 0.527 to -0.378.

First: HMEMNDFETLRDMYLTGKIWNVGDIVEANGVRGKVIRKGTNYLSFVDEDNKVHKAWLYDIEE
Second: HMEMSLGEKLKQARLTKNFSQEYMAEVLQISQKTYSNFENNKTKPDFSQIEEISKVLETSILEFLT
The “soluble fraction (log2)” value of the first is higher: 0.291 for the first, -1.12 for the second.
